# In PMC6005164, “A novel thymidylate synthase from the Vibrionales, Alteromonadales, Aeromonadales, and Pasteurellales (VAAP) clade with altered nucleotide and folate binding sites” (PeerJ, 2018):
# T1: VpTS (Vibrio parahaemolyticus, UniProt Q87SA0)
# T1 construct: gene thyA; full-length from codon-optimized synthetic gene in pJexpress414; E. coli BL21(DE3)-SI; 35,944 Da with tag; homodimer 70 kDa
# T1 sequence (Q87SA0 1-283): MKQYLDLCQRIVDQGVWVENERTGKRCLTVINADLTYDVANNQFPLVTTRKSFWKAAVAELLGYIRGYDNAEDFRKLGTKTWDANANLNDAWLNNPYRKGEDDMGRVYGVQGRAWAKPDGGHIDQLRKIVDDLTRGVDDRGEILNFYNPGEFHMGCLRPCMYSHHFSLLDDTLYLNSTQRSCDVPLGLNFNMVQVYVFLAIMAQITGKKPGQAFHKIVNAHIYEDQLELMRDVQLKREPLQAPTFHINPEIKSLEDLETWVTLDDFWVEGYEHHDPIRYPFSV
# Legend:
# [1] = target: T1, VpTS; test: spectrophotometric dihydrofolate formation at […] nm, dose-response fit; assay type: biochemical
# [2] = substrate: Nc1nc2c(c(=O)[nH]1)N1CN(c3ccc(C(=O)N[C@@H](CCC(=O)O)C(=O)O)cc3)C[C@H]1CN2; test: purified protein; assay type: biochemical, Vibrio parahaemolyticus; conditions: co-substrate dUMP, mTHF 0–300 µM, 50 mM Tris-HCl pH 7.5, 25 mM MgCl2, 5 mM DTT, 1 mM EDTA, 30 °C, varied: cofactor
# [3] = substrate: O=c1ccn([C@H]2C[C@H](O)[C@@H](COP(=O)(O)O)O2)c(=O)[nH]1; test: purified protein; assay type: biochemical, Vibrio parahaemolyticus; conditions: co-substrate mTHF, dUMP 0–150 µM, 50 mM Tris-HCl pH 7.5, 25 mM MgCl2, 5 mM DTT, 1 mM EDTA, 30 °C
# [4] = target: the molecule itself; test: SEC; Superdex 75 10/300, 1 mL/min, Tris HCl 20 mM pH 7.5, NaCl 100 mM; native molecular weight from a Kav vs. log MW plot of standards
molecule,measurement,setting,value
COc1cc(Cc2cnc(N)nc2N)cc(OC)c1OC [trimethoprim],IC50,[1],106 ± 11.4 µM
"VpTS (Vibrio parahaemolyticus RIMD 2210633) (protein, full-length from codon-optimized synthetic gene in pJexpress414; E. coli BL21(DE3)-SI; 35,944 Da with tag; homodimer 70 kDa) MKQYLDLCQRIVDQGVWVENERTGKRCLTVINADLTYDVANNQFPLVTTRKSFWKAAVAELLGYIRGYDNAEDFRKLGTKTWDANANLNDAWLNNPYRKGEDDMGRVYGVQGRAWAKPDGGHIDQLRKIVDDLTRGVDDRGEILNFYNPGEFHMGCLRPCMYSHHFSLLDDTLYLNSTQRSCDVPLGLNFNMVQVYVFLAIMAQITGKKPGQAFHKIVNAHIYEDQLELMRDVQLKREPLQAPTFHINPEIKSLEDLETWVTLDDFWVEGYEHHDPIRYPFSV",Km,[2],96.3 ± 18 µM
same,kcat,[2],0.3 s⁻¹
same,Km,[3],27.3 ± 4.3 µM
same,kcat,[3],0.3 s⁻¹
"recombinant thymidylate synthase from Vibrio parahaemolyticus FIM-S1708+ (enzyme, UniProt Q87SA0 1-283, looked up, thymidylate synthase (folate-dependent, thyA) of Vibrio parahaemolyticus strain FIM-S1708+, GenBank WP_100088861.1; codon-optimized synthetic gene in pJexpress414; theoretical mass with tag 35,944 Da; the 35 kDa band is compared with the mass that includes the 10-His tag, so the tag was probably still on the protein in the size exclusion run; also called VpTS; TS) MKQYLDLCQRIVDQGVWVENERTGKRCLTVINADLTYDVANNQFPLVTTRKSFWKAAVAELLGYIRGYDNAEDFRKLGTKTWDANANLNDAWLNNPYRKGEDDMGRVYGVQGRAWAKPDGGHIDQLRKIVDDLTRGVDDRGEILNFYNPGEFHMGCLRPCMYSHHFSLLDDTLYLNSTQRSCDVPLGLNFNMVQVYVFLAIMAQITGKKPGQAFHKIVNAHIYEDQLELMRDVQLKREPLQAPTFHINPEIKSLEDLETWVTLDDFWVEGYEHHDPIRYPFSV",stoichiometry N,[4],2
